# Test results published in US20160177307.
# Key:
# [1] = tested on: T1, VEGF-121 (Homo sapiens), P15692-9; experiment: filter
# T1 sequence: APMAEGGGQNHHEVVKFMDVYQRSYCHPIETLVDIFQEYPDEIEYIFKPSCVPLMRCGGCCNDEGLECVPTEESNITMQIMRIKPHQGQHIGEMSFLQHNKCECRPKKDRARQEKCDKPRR
# [2] = tested on: T2, VEGF-165 (Homo sapiens), P15692-4; experiment: filter
# T2 sequence: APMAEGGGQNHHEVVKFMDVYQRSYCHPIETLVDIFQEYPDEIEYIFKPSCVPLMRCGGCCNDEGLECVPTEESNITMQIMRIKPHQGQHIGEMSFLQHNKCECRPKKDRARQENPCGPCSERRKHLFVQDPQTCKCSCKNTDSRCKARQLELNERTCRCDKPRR
# [3] = target: PDGF-BB (platelet-derived growth factor BB) (Homo sapiens) (UniProt P01127); experiment: filter
# PDGF-AB = PDGF-AB (UniProt P04085+P01127); experiment: filter
# [4] = tested on: T3, VEGF-164 (Rattus norvegicus), P16612-2; experiment: filter; details: P=Nap-dU
# T3 sequence: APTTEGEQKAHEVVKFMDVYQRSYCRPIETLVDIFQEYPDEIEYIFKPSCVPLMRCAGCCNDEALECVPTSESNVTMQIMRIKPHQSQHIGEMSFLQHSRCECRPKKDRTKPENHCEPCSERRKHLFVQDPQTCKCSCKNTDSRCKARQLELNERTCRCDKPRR
# rVEGF164, P16612-2 = tested on: T4, rVEGF164, P16612-2; experiment: filter; details: rest DNA, SB18T, 37 C
# T4 sequence: T3 sequence
# [5] = target: PDGF-BB (platelet-derived growth factor BB) (Homo sapiens) (UniProt P01127); experiment: cell_activity
# [6] = tested on: T1, VEGF-121 (Homo sapiens), P15692-9; experiment: cell_activity; details: NapdU at P; VEGFR2 phosphorylation, HUVEC
# [7] = Z BndU, P NapdU, 2'-OMe at superscript-1 positions, C3 spacers, three Heg linkers
# [8] = all P are NapdU, rest DNA, SB18T, 37 C
# [9] = NapdU at 6,7,12,15,16,18,23,24,25,29, rest DNA, SB18T, 37 C
# [10] = VEGF-PDGF heterodimer, no Heg linker, NapdU, BndU
# Chain of PDGF-BB (platelet-derived growth factor BB) (Homo sapiens) (P01127 82-190): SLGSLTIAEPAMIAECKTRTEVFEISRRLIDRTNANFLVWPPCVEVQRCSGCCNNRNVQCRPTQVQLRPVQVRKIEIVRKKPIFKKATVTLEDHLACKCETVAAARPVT
# Chain of PDGF-AB (P01127 82-190, chain 2 of 2, other chains not shown): as the sequence (P01127 82-190) above
sequence,measurement,setting,value
TTACGTTACACGCGTTTATAGCGCCGTTCAAGTGCTTTAGATTTAAATG [4149-8_320],Kd,[1]; [7],0.422 nM
same,Kd,"[2]; PDGF-3Heg-VEGF, NapdU, BndU",0.0768 nM
same,Kd,[3]; [7],0.015 nM
same,Kd,"PDGF-AB; PDGF-3Heg-VEGF, NapdU, BndU",0.0493 nM
AATCAGCCGTTCAAGTGCTTGTAGGATTTAAATGGAAT [4867-31_27],Kd,[4],0.07 nM
same,Kd,[1]; P=Nap-dU,0.59 nM
same,Kd,[2]; P=Nap-dU,0.11 nM
AATCAGCCGTTCAAGTGCTTGTAGGATTTAAATGGA [4867-31_39],Kd,[4],0.09 nM
same,Kd,[1]; P=Nap-dU,0.62 nM
same,Kd,[2]; P=Nap-dU,0.2 nM
CAGCCGTTCAAGTGCTTGTAGGATTTAAAT [4867-31_46],Kd,"rVEGF164, P16612-2; all P are NapdU",9.6 nM
same,Kd,[2]; [8],5.9 nM
CGACAGCATGTATGCACATCT [5169-4_84],Kd,"[3]; NapdU at P, 2'-OMe 1,4,6,7,14,15,16,18,20,21",0.0053 nM
same,IC50,"[5]; NapdU at P, 2'-OMe 1,4,6,7,14,15,16,18,20,21, PDGFRb phosphorylation, Hs27",3.3 nM
AGCCGTTCAAGTGCTTGTAGGATTTAAATGGA [4867-31_43],Kd,[1]; [9],0.29 nM
same,Kd,"rVEGF164, P16612-2; NapdU at 6,7,12,15,16,18,23,24,25,29",0.05 nM
same,Kd,[2]; [9],0.05 nM
same,IC50,[6],2.2 nM
TTACGTTACCGCGTTTATAGCGCCGTTCAAGTGCTTGTAGGATTTAAATGG [4149-8_401 (PDGF_379-HHH-VEGF_192)],Kd,"[1]; Z BndU, P NapdU, M MBndU, superscript 1 2'-OMe, C3 spacer, Heg linkers, 5'-amine, Table 20 gives 3.74E-11",0.027 nM
same,Kd,"[2]; Z BndU, P NapdU, M MBndU, superscript 1 2'-OMe, C3 spacer, Heg linkers, 5'-amine, Table 20 gives 2.77E-10",0.025 nM
same,Kd,"[3]; Z BndU, P NapdU, M MBndU, superscript 1 2'-OMe, C3 spacer, Heg linkers, 5'-amine, Table 20 gives 1.51E-11",0.0056 nM
same,Kd,"PDGF-AB; Z BndU, P NapdU, M MBndU, superscript 1 2'-OMe, C3 spacer, Heg linkers, 5'-amine",0.193 nM
CGACAGCATGTATGCACATCT [5169-4_112],Kd,"[3]; NapdU at P, 2'-OMe 14,16,21",0.0062 nM
same,IC50,"[5]; NapdU at 9,11,13,19, 2'-OMe G14,A16 and 2'-OMe-NapU21, inhibition of PDGFRbeta phosphorylation",1 nM
CAATCAGCCGTTCAAGTGCTTGTAGGATTTAAATGGAAT [4867-31_26],Kd,[4],0.07 nM
same,Kd,[1]; P=Nap-dU,0.49 nM
same,Kd,"[2]; P=Nap-dU, SB18T, 37 C",0.075 nM
ATCAGCCGTTCAAGTGCTTGTAGGATTTAAATGGAAT [4867-31_28],Kd,[4],0.07 nM
same,Kd,[1]; P=Nap-dU,0.97 nM
same,Kd,[2]; P=Nap-dU,0.1 nM
CCGTTCAAGTGCTTTAGATTTAAATGGTTACGTTACACGCGTTTATAGC [4149-8_313],Kd,[1]; [10],4.31 nM
same,Kd,"[2]; Nap-dU (VEGF part), Bn-dU (PDGF part), C3, Heg, 2'-OMe, VEGF",0.258 nM
same,Kd,[3]; [10],0.0933 nM
same,Kd,PDGF-AB; [10],0.165 nM
TCAATCAGCCGTTCAAGTGCTTGTAGGATTTAAATGGA [4867-31_22],Kd,[4],0.54 nM
same,Kd,[1]; NapdU at P,0.82 nM
same,Kd,[2]; NapdU at P,0.26 nM
TCAGCCGTTCAAGTGCTTGTAGGATTTAAATGGAAT [4867-31_29],Kd,[4],0.08 nM
same,Kd,[1]; P=Nap-dU,0.96 nM
same,Kd,[2]; P=Nap-dU,0.13 nM
CGACAGCATGTATGCACATCT [5169-4_26],Kd,"[3]; NapdU (5-(N-naphthylmethylcarboxamide)-2'-deoxyuridine) at 9,11,13,19,21, rest DNA, SB18T, 37 C",0.017 nM
same,IC50,"[5]; NapdU (5-(N-naphthylmethylcarboxamide)-2'-deoxyuridine) at 9,11,13,19,21, rest DNA, inhibition of PDGFRbeta phosphorylation",1.6 nM
GTTCAAGTGCTTGTAGGATTTAAATGGA [4867-31_61],Kd,[4],13 nM
same,Kd,[1]; NapdU at P,33 nM
same,Kd,[2]; NapdU at P,2.9 nM
TCAGCCGTTCAAGTGCTTGTAGGATTTAAATGGA [4867-31_41],Kd,[4],0.08 nM
same,Kd,[1]; P=Nap-dU,0.63 nM
same,Kd,[2]; P=Nap-dU,0.13 nM
CAATCAGCCGTTCAAGTGCTTGTAGGATTTAAATGGA [4867-31_38],Kd,[4],0.09 nM
same,Kd,[1]; P=Nap-dU,0.81 nM
same,Kd,[2]; P=Nap-dU,0.17 nM
CAGCCGTTCAAGTGCTTGTAGGATTTAAATGGA [4867-31_42],Kd,[1]; [8],0.2 nM
same,Kd,"rVEGF164, P16612-2; all P are NapdU",0.05 nM
same,Kd,[2]; [8],0.071 nM
